Reference: PMC3958920 (FEBS Open Bio, 2014)

B1: CpLhpI, Δ1-pyrroline-2-carboxylate reductase of Colwellia psychrerythraea 34H (enzyme, UniProt Q485R8 1-316, looked up)
chain: MKIISAEQVHQNLNFEELIPLLKQSFSRPFSMPQRQVYSLAPEQSENHDAFALLPSWNEEVIGNKAFTYFPDNAKKHDLPGLFSKIMLFKRQTGEPLALVDGTSVTYWRTAAISALASQLLSRKNSQHLMLFGTGNLASYLVKAHLTVRDIKQVTLWGRNAKKVSKLIADFSILYPAVTFKTSVDVNAEVASADIICCATGAKTPLFDGNSVSAGCHIDCLGNHMTDARECDTTTILRARVFVDSLTNTLNEAGELLIPMAEDAFNKDEIVGELADMCKTPSMLRQSSDEITLFKSVGTAISDLVAAHSVVEKLAD
B2: PaLhpD, Pyr2C/Pip2C reductase of Pseudomonas aeruginosa (enzyme, Pseudomonas aeruginosa PAO1, UniProt Q9I492 1-334, looked up)
chain: MIRMTLDEVRELAVRILRRHAFSEAHVQAVADTLVAGERDECASHGIWRLLGCIATLKAGKVSADAEPELHDIAPGLLRVDAHGGFSQCAFRLGLPHLLEKARSQGIAAMAVNRCVHFSALWVEVEALTEAGLVALATTPSHAWVAPAGGRKPIFGTNPIAFGWPRPDGPPFVFDFATSAVARGEIQLHERAGKPIPLGWGVDEQGEPTTDASAALRGAMLTFGGHKGSALAAMVELLAGPLIGDLTSAESLAYDEGSRSSPYGGELLIAIDPRRMLGASAEEHLARAETLFEGIVEQGARLPSQRRFEARERSARDGVTIPEALHRELLALLE
B3: AbLhpI, Δ1-pyrroline-2-carboxylate reductase of Azospirillum brasilense (enzyme, UniProt V5YW53 1-311, looked up)
chain: MTALSPIPVFDAADTAALLAYPALLATLGQAVADYAAGEIVSPERLVVPLQAGGVMLSMPSSARDLATHKLVNVCPGNGARGLPTILGQVTAYDASTGEMRFALDGPTVTGRRTAAVTALGIQALHGAAPRDILLIGTGKQAANHAEALAAIFPEARLHVRGTSADSAAAFCAAHRAQAPRLVPLDGDAIPDAIDVVVTLTTSRTPVYREAAREGRLVVGVGAFTADAAEIDANTVRASRLVVDDPAGARHEAGDLIVAQVDWQHVASLADVLGGTFDRSGPLLFKSVGCAAWDLAACRTARDALAARRAG
B4: AbLhpH, trans-3-hydroxy-L-proline dehydratase of Azospirillum brasilense (enzyme, UniProt V5YXI5 1-335, looked up)
chain: MKITRSLSTVEVHTGGEAFRIVTSGLPRAPGDTIVQRRAWLKENADEIRRALMFEPRGHADMYGGYLTEPVSPNADFGVIFVHNEGYSDHCGHGVIALSTAAVELGWVQRTVPETRVGIDAPCGFIEAFVKWDGEHAGPVRFVNVPSFIWQRDVSVETPSFGTVTGDIAYGGAFYFYVDGAPFDLPVREAAVEKLIRFGAEVKAAANAKYPVVHPEIPEINHIYGTIIANAPRHPGSTQANCCVFADREVDRSPTGSGTGGRVAQLYQRGLLAAGDTLVNESIVGTVFKGRVLRETTVGDIPAVIPEVEGSAHICGFANWIVDERDPLTYGFLVR
B5: CpLhpH, trans-3-hydroxy-L-proline dehydratase of Colwellia psychrerythraea 34H (enzyme, UniProt Q485S0 1-355, looked up)
chain: MTKNIAQAAVKFEQWQPKIEQESYLTINSLECHTGGEPLRIITSGFPVLKGNTILAKANDCKQNYDQLRRALMFEPRGHADMYGAIITDAERDDSHFGAVFIHNEGYSSMCGHAVIALTKTAVESGVVARTGDVTQVVIDVPCGQIYAMAYSHNNVVKHVSFQCVPSFVYAKDQQVEVDGIGMVQFDIAYGGAFYAYVQASSLGLSLVPEQQEKLIAYGRKIKQAIIPQFEINHPTTAELSFLYGVIFIDDSPNQDVHSRNVCIFADGELDRSPTGSGVSGRIALHHAKQQIVLNETITIESILASSFSVRAIETVCFAGFDAVIPEVTGDAYVCGKGQWFINAEDPLKYGFLLR
B6: C14orf149, human trans-3-hydroxy-L-proline dehydratase (enzyme, UniProt Q96EM0 1-354, looked up)
chain: MESALAVPRLPPHDPGTPVLSVVDMHTGGEPLRIVLAGCPEVSGPTLLAKRRYMRQHLDHVRRRLMFEPRGHRDMYGAVLVPSELPDAHLGVLFLHNEGYSSMCGHAVLALGRFALDFGLVPAPPAGTREARVNIHCPCGLVTAFVACEDGRSHGPVRFHSVPAFVLATDLMVDVPGHGKVMVDIAYGGAFYAFVTAEKLGLDICSAKTRDLVDAASAVTEAVKAQFKINHPDSEDLAFLYGTILTDGKDAYTKEPTTNICVFADEQVDRSPTGSGVTARIALQYHKGLLELNQMRAFKSSATGSVFTGKAVREAKCGDFKAVIVEVSGQAHYTGTASFIIEDDDPLRDGFLLK

Assays:
purified protein [1] = substrate: O=C(O)C1=NC[C@@H](O)C1; experiment: purified protein; settings: NADPH
purified protein [2] = substrate: O=C(O)[C@@H]1CCCN1; experiment: purified protein; settings: NADP+
purified protein [3] = substrate: O=C(O)C1=NCCC1; experiment: purified protein; settings: NADPH
purified protein [4] = substrate: O=C(O)[C@@H]1CCCCN1; experiment: purified protein; settings: NADP+
purified protein [5] = substrate: O=C(O)C1=NCCCC1; experiment: purified protein; settings: NADPH
SEC = biological target: the molecule itself; experiment: SEC
[6] = potassium phosphate pH 6.5, 30 °C
[7] = potassium phosphate pH 7.0, 30 °C

Protein	Km (purified protein [1]; [6]) [mM]	kcat (purified protein [1]; [6]) [s⁻¹]	kcat/Km (purified protein [1]; [6]) [M⁻¹ s⁻¹]	Km (purified protein [2]; glycine-NaOH pH 10.5, 30 °C) [mM]	kcat (purified protein [2]; glycine-NaOH pH 10.5, 30 °C) [s⁻¹]	kcat/Km (purified protein [2]; glycine-NaOH pH 10.5, 30 °C) [M⁻¹ s⁻¹]	Km (purified protein [3]; [6]) [mM]	kcat (purified protein [3]; [6]) [s⁻¹]	kcat/Km (purified protein [3]; [6]) [M⁻¹ s⁻¹]	Km (purified protein [4]; glycine-NaOH pH 10.5, 30 °C) [mM]	kcat (purified protein [4]; glycine-NaOH pH 10.5, 30 °C) [s⁻¹]	kcat/Km (purified protein [4]; glycine-NaOH pH 10.5, 30 °C) [M⁻¹ s⁻¹]	Km (purified protein [5]; [6]) [mM]	kcat (purified protein [5]; [6]) [s⁻¹]	kcat/Km (purified protein [5]; [6]) [M⁻¹ s⁻¹]	stoichiometry N (SEC)	other results
B1	8.28 ± 2.45	1.02 ± 0.287	124 ± 2.33	18.3 ± 2.4	1.09 ± 0.115	59.5 ± 1.5	5.90 ± 0.36	124 ± 7.83	21170 ± 33.3	80.1 ± 2.8	0.0213 ± 0.000667	0.267 ± 0.0167	7.26 ± 1.22	1.38 ± 0.228	190 ± 3.33	2	
B2																2	Km (purified protein [1]; [7]): 0.835 ± 0.109 mM; kcat (purified protein [1]; [7]): 14.5 ± 1.18 s⁻¹; kcat/Km (purified protein [1]; [7]): 17400 ± 800 M⁻¹ s⁻¹; Km (purified protein [2]; glycine-NaOH pH 10.0, 30 °C): 18.5 ± 2.1 mM; kcat (purified protein [2]; glycine-NaOH pH 10.0, 30 °C): 3.42 ± 0.3 s⁻¹; kcat/Km (purified protein [2]; glycine-NaOH pH 10.0, 30 °C): 185 ± 5 M⁻¹ s⁻¹; Km (purified protein [3]; [7]): 0.447 ± 0.040 mM; kcat (purified protein [3]; [7]): 41.7 ± 2 s⁻¹; kcat/Km (purified protein [3]; [7]): 93300 ± 3670 M⁻¹ s⁻¹; Km (purified protein [4]; glycine-NaOH pH 10.0, 30 °C): 34.8 ± 4.0 mM; kcat (purified protein [4]; glycine-NaOH pH 10.0, 30 °C): 2.25 ± 0.233 s⁻¹; kcat/Km (purified protein [4]; glycine-NaOH pH 10.0, 30 °C): 64.7 ± 0.833 M⁻¹ s⁻¹; Km (purified protein [5]; [7]): 1.57 ± 0.3 mM; kcat (purified protein [5]; [7]): 35.3 ± 4.83 s⁻¹; kcat/Km (purified protein [5]; [7]): 22500 ± 1130 M⁻¹ s⁻¹
B3	0.491 ± 0.063	10.3 ± 0.967	21200 ± 750	3.63 ± 0.31	3.92 ± 0.117	1080 ± 61.7	0.628 ± 0.045	523 ± 21.7	835000 ± 23300	6.54 ± 0.96	2.5 ± 0.233	383 ± 20	0.474 ± 0.050	166 ± 10.2	352000 ± 16800	2	
B4																2	
B5																2	
B6																2	
